What was measured:
[1] = test system: mouse adult SVZ NSCs; test: Gene expression by quantitative real-time PCR in adult SVZ NSCs; format: cell-based; conditions: 48 h after stimulation
Description: Real-time Quantitative PCR. 24 h cells after plating cells were stimulated with 1 activation unit of CD95L-T4. After 48 h RNA was isolated using the RNeasy Mini Kit (Qiagen). Real-time quantitative PCR was carried out using Sybr Green core kits (Eurogentec) and Uracil-N-glycosylase (Eurogentec). For determining CD95L induction after global ischemia, the hippocampi were dissected out and stored in RNAlater reagent (Ambion). RNA was extracted using the RNeasy Mini Kit (Qiagen). Real-time quantitative PCR was carried out using Sybr Green core kits (Eurogentec) and Uracil-N-glycosylase (Eurogentec). Primers used for quantitative real-time PCR were designed using Primer 3 software (http://fokker.wi.mit.edu/cgi-bin/primer3/primer3_www.cgi).

[2] = test system: hippocampal NSCs; test: β-III-tubulin expression in hippocampal neural progenitor cells; format: cell-based, mouse; conditions: neural progenitors isolated from the HC
Description: For staining of intracellular markers, cells were harvested, fixed with 4% PFA for 10 min on ice, washed and permeabilized using 0.1% Saponin (Sigma-Aldrich) in PBS with 10% FCS (SAP). Cells were incubated with primary antibody or isotype for 30 min on ice. Cells were washed three time with SAP and incubated with secondary antibody for 30 min on ice. Cells were washed again three times with SAP and analysed. Antibodies used were: anti β-III-tubulin (Chemicon) 1:100, anti GFAP (Chemicon) 1:100 and isotype mouse IgG1 (Sigma) 1:20. Secondary antibody was goat anti-mouse PE 1:100 (Dianova). To quantify DNA fragmentation, cells detached with trypsin were centrifuged, washed and fixed with 70% ethanol at −20° C. for 1 h. Fixed cells were resuspended in a hypotonic lysis buffer (0.1% sodium citrate and 0.1% Triton X-100) containing […] of propidium iodide, incubated at 4° C. overnight. After final washings, all samples were analysed using a FACS-Calibur (Becton Dickinson) and CellQuest Software (Becton Dickinson).
Mouse adult neural stem cell culture. NSCs were isolated as previously described^30. Briefly, 6 week old female C57BL6 mice were sacrificied and tissue from hippocampus, SVZ and spinal cord was dissected out. […]

[3] = test system: human neural progenitor cells; test: Neuronal differentiation (β-III-tubulin) of human neural progenitor cells after growth factor removal; format: cell-based
Description: Immunostainings. Immunohistochemistry and Immunocytochemistry were performed as previously described. Primary antibodies used were anti GFP (chicken) (Ayes Labs) 1:1000, anti NeuN (mouse), (Chemicon) 1:200, anti β-III-tubulin (mouse) (Chemicon 1:200), anti GFAP (mouse) (Chemicon 1:200), active-β-Catenin (mouse) (P-Ser37 or P-Thr41; 1:800) (Upstate), phosphorylated GSK3β (P-Ser9-GSK3β, 1:1000). The mouse Pax6 antibody developed by A. Kawakami was obtained from the Developmental Studies Hybridoma Bank developed under auspices of the NICHD and maintained by The University of Iowa, Department of Biological Sciences, Iowa City, Iowa 52242. Secondary antibodies used were goat anti-rabbit alexa 488 (Molecular Probes) 1:500, goat anti-mouse rhodamine X (Dianova) 1:200, Dapi (Sigma) 1:3000, donkey anti-chicken FITC (Dianova) 1:200.
Human neural progenitor generation and culture. The human ES cell line H9.2 was cultivated on mitotically inactivated mouse embryonic fibroblasts (MEFs) in Knockout Dulbecco's Modified Eagle Medium (KO-DMEM, Gibco) containing 20% Knockout Serum Replacement, 1% non-essential amino acids, 1 mM I-glutamine, 0.1 mM β-mercaptoethanol (all from Gibco), and 4 ng/ml human basic fibroblast growth factor (FGF-2, Invitrogen). Cells were routinely passaged every four days by treatment with 100 units collagenase IV (Gibco) for one hour. […]

B1: CD95L: the ligand for CD95 (APO-1/Fas) (protein, listed as Homo sapiens)
chain: MQQPFNYPYPQIYWVDSSASSPWAPPGTVLPCPTSVPRRPGQRRPPPPPPPPPLPPPPPPPPLPPLPLPPLKKRGNHSTGLCLLVMFFMVLVALVGLGLGMFQLFHLQKELAELRESTSQMHTASSLEKQIGHPSPPPEKKELRKVAHLTGKSNSRSMPLEWEDTYGIVLLSGVKYKKGGLVINETGLYFVYSKVYFRGQSCNNLPLSHKVYMRNSKYPQDLVMMEGKMMSYCTTGQMWARSSYLGAVFNLTSADHLYVNVSELSLVNFEESQTFFGLYKL
modifications: CHAIN (1)..(281) This feature is the amino acid sequence for CD95L protein. CD95L is a ligand for CD95. CD95 is APO-1/Fas and a member of the tumor necrosis factor receptor superfamily.
For B1, the “Neurogenin (Ngn1) expression” value [1] was “much higher”, the β-III-tubulin expression [2] was “increase in β-III-tubulin expression” and the “number of neurons / β-III-tubulin positive cells” value [3] was “strikingly increased number of neurons”.

Source: patent US20110300113A1, “Death Receptor CD95 Controls Neurogenesis of Adult Neural Stem Cells in Vivo and in Vitro” (DEUTSCHES KREBSFORSCHUNGSZENTRUM, priority 2006, published 2011)
